Assay results reported in patent publication US20090117097A1 (Chugai, published 2009).

B1: Murine VB22B sc(Fv)2 (scFv)
scFv: QVQLQQSGPELVKPGASVKISCKASGYAFTNSWMNWVKQRPGKGLEWIGRIYPGDGETIYNGKFRVKATLTADKSSSTAYMDISSLTSEDSAVYFCARGYDDYSFAYWGQGTLVTVSAGGGGSGGGGSGGGGSDIVMTQAAPSIPVTPGESVSISCRSSKSLLHSNGNTYLYWFLQRPGQSPQLLIYRMSNLASGVPDRFSGSGSGTAFTLRISRVEAEDVGVYYCMQHIEYPFTFGSGTKLEIKGGGGSGGGGSGGGGSQVQLQQSGPELVKPGASVKISCKASGYAFTNSWMNWVKQRPGKGLEWIGRIYPGDGETIYNGKFRVKATLTADKSSSTAYMDISSLTSEDSAVYFCARGYDDYSFAYWGQGTLVTVSAGGGGSGGGGSGGGGSDIVMTQAAPSIPVTPGESVSISCRSSKSLLHSNGNTYLYWFLQRPGQSPQLLIYRMSNLASGVPDRFSGSGSGTAFTLRISRVEAEDVGVYYCMQHIEYPFTFGSGTKLEIK
notes: Single chain sc(Fv)2, VH-(Gly4Ser)3-VL-(Gly4Ser)3-VH-(Gly4Ser)3-VL, with a FLAG tag (detected with anti-FLAG M2); also called mVB22B
B2: anti-human Mp1 antibody VB22B (VB22B IgG) (antibody, V domains shown)
VH: QVQLQQSGPELVKPGASVKISCKASGYAFTNSWMNWVKQRPGKGLEWIGRIYPGDGETIYNGKFRVKATLTADKSSSTAYMDISSLTSEDSAVYFCARGYDDYSFAYWGQGTLVTVSA
VL: DIVMTQAAPSIPVTPGESVSISCRSSKSLLHSNGNTYLYWFLQRPGQSPQLLIYRMSNLASGVPDRFSGSGSGTAFTLRISRVEAEDVGVYYCMQHIEYPFTFGSGTKLEIK
notes: Mouse monoclonal IgG purified from hybridoma supernatant; They were cloned with primers complementary to the mouse IgG2b and kappa constant regions; also called murine antibody VB22B

How the values were obtained:
[1] = biological target: T1, cynomolgus monkey Mp1 expressed on CHO cells (CHO-monkey Mp1) (cynomolgus monkey, UniProt P40238 26-635 (human entry)); test: flow cytometry on CHO cells expressing Mp1, detection with anti-FLAG M2 and FITC anti-mouse IgG
T1 construct: also called monkey Mp1-expressing CHO cell line
T1 chain: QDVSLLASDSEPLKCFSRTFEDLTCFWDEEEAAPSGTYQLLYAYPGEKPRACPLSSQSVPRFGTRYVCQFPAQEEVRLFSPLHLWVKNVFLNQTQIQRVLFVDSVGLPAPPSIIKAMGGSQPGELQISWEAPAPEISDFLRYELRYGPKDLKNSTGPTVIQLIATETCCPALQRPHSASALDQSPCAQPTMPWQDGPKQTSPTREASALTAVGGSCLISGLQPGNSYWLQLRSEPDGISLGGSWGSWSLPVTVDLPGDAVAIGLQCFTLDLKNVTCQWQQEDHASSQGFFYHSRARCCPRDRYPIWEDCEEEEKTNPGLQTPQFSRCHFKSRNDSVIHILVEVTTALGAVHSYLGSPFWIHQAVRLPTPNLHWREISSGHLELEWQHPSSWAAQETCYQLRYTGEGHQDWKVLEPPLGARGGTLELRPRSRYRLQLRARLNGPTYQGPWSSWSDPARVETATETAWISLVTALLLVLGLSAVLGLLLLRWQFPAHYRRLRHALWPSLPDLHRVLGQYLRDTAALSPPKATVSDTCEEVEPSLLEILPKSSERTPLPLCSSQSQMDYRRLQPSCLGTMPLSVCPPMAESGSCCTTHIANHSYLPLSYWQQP
Experimental: (§1) CHO-human Mp1, CHO-monkey Mp1, and CHO-mouse Mp1 cells were recovered and suspended in FACS buffer (1% FBS/PBS) to a final concentration of 1×10⁶ cells/mL. Cell suspensions were aliquoted at 100-μL/well into the Multiscreen-HV Filter Plates (Millipore). After centrifugation, the supernatant was removed. An appropriate concentration of diabody or sc(Fv)2 was added into each well and incubated on ice for 30 min. The cells were washed once with 200 μL of FACS buffer, and incubated on ice for 30 min following the addition of 10 μg/mL ANTI-FLAG® M2 Monoclonal Antibody (Sigma-Aldrich). The cells were then washed once with 200 μL of FACS buffer, and a 100×-diluted FITC-labeled anti-mouse IgG antibody (Beckman Coulter) was added to the plate. The plate was incubated on ice for 30 min. After centrifugation, the supernatant was removed. The cells were suspended in 400 μL of FACS Buffer, and then analyzed by flow cytometry using EPICS ELITE ESP (Beckman Coulter). An analysis gate was set on the forward and side scatters of a histogram to include viable cell populations.
(§2) The binding activity of the purified VB22B sc(Fv)2 to various Mp1 molecules expressed in CHO cells was determined.

[2] = biological target: T2, human Mp1 expressed on CHO cells (CHO-human Mp1) (human, UniProt P40238 26-635); test: as above
T2 construct: whole, on cells; also called human Mp1-expressing CHO cell line
T2 sequence (looked up): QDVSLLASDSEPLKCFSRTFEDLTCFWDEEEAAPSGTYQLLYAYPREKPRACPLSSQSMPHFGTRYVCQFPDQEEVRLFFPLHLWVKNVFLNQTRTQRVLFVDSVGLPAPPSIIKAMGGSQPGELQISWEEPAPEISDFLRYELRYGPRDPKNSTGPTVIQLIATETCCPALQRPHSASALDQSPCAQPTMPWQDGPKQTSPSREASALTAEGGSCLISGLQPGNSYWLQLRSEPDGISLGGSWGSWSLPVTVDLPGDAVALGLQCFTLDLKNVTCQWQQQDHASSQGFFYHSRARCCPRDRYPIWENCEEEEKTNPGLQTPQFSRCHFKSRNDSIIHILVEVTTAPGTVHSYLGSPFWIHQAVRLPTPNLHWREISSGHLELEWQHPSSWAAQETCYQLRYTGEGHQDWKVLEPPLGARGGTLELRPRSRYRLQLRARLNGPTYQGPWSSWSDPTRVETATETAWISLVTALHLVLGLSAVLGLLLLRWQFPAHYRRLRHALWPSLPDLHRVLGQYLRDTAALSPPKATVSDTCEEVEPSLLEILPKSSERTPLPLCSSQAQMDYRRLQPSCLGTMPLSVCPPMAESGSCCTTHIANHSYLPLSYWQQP
Experimental: as §1, §2

[3] = biological target: T3, mouse Mp1 expressed on CHO cells (CHO-mouse Mp1) (mouse, UniProt Q08351 26-625); test: flow cytometry on CHO cells expressing Mp1
T3 construct: whole, on cells; also called mouse Mp1-expressing CHO cell line
T3 sequence (looked up): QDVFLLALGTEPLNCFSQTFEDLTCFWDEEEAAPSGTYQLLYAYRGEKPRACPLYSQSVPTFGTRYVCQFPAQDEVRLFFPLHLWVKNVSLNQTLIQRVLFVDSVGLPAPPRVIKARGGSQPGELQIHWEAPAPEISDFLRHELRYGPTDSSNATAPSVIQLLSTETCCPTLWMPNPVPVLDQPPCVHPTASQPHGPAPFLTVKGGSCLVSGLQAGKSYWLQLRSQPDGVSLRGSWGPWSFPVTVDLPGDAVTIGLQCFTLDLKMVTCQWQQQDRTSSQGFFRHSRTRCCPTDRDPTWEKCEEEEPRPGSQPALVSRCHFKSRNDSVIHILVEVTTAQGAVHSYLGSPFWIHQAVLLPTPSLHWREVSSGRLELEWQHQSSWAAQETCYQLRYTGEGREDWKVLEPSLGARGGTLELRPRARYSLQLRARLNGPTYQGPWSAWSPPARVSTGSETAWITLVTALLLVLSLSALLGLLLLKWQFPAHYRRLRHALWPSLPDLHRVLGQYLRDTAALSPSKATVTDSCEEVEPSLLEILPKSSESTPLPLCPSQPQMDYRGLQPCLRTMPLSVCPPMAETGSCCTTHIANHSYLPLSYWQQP

[4] = biological target: T4, human Mp1-IgG Fc fusion protein (human, UniProt P40238 26-491); test: SPR (Biacore 2000), hMp1-Fc amine-coupled to CM5 chip, VB22B IgG injected at 1.25 to 20 ug/mL
T4 construct: range 26-491; Expressed in CHO-DG44 with a 19-amino acid signal peptide from a human IgG H chain variable region, left out here; also called hMp1-Fc; hMPL-Fc; not shown: Fc region of human IgG-gamma1 (a region downstream of Asp 216)
T4 sequence: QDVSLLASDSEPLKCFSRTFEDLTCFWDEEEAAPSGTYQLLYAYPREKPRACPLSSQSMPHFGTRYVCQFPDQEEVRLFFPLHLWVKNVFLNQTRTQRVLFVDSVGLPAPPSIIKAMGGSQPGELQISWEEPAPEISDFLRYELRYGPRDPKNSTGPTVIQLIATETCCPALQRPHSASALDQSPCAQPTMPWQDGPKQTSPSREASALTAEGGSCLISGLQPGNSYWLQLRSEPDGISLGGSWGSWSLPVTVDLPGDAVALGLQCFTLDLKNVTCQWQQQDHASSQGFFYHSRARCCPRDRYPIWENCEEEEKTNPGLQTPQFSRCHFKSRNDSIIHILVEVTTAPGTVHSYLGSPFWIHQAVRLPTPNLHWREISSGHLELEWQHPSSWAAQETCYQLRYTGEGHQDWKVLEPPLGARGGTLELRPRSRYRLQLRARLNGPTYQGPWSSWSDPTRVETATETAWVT
Experimental: Since the anti-human Mp1 antibody VB22B binds to soluble recombinant Mp1, kinetic analyses of the antigen-antibody reaction between VB22B IgG and human Mp1-IgG Fc fusion protein were carried out as described in Example 1.4. The Sensor Chip CM5 (Biacore) was placed in Biacore 2000 (Biacore), and human Mp1-IgG Fc fusion protein was immobilized onto the chip by amine-coupling methods. Then, 1.25 to 20 μg/mL of VB22B IgG solution was prepared using HBS-EP Buffer (Biacore), and injected over the chip surface for 2 min to reveal the binding region. Then, HBS-EP Buffer was injected over the chip surface for 2 min to reveal the dissociation region. VB22B IgG bound to the human Mp1-IgG Fc fusion protein on the sensor chip was removed by injecting 10 mM NaOH over the sensor chip for 15 sec, and the chip was recovered. HBS-EP Buffer was used as the running buffer, and the flow rate was 20 μL/min. Using the BIAevaluation Version 3.1 (Biacore) software, the reaction rate constant at each concentration was calculated from the sensorgrams.

[5] = biological target: T1, cynomolgus monkey Mp1 expressed on CHO …; test: flow cytometry on CHO cells expressing Mp1
[6] = biological target: T5, GST fusion protein containing MG8 (Gln26 to Pro217) of human Mp1 (human, UniProt P40238 26-217); test: Western blotting of GST fusion proteins
T5 construct: range 26-217; not shown: glutathione S-transferase (GST) encoded by vector pGEX-4T-3 (Amersham Biosciences)
T5 sequence (looked up): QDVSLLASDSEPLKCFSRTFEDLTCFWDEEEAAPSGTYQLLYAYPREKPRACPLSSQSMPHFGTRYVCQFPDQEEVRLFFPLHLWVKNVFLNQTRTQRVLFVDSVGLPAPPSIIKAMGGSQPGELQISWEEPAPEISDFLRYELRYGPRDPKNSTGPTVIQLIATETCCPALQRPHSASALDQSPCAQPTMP
Experimental: (§3) Since the anti-human Mp1 antibody VB22B can be used for Western blotting, a GST-fusion protein containing a partial sequence of human Mp1 was constructed for VB22B epitope analysis. MG1 (Gln26 to Trp491) and MG2 (Gln26 to Leu274) regions were each amplified by PCR, and cloned into pGEX-4T-3 (Amersham Biosciences) to be expressed as GST fusion proteins. The resulting plasmid DNAs were transformed into DH5α to give transformants. A final concentration of 1 mM IPTG was added to the transformants in their logarithmic growth phase to induce the expression of GST fusion proteins. The bacterial cells were harvested after two hours of incubation. The cells were lysed by sonication. The lysates were centrifuged in XL-80 Ultracentrifuge (Beckman, Rotor 70.1Ti) at 35,000 rpm for 30 min. The culture supernatants were removed, and then the fusion proteins were purified using GST Purification Modules (Amersham Biosciences). The samples were separated by 10%-SDS-PAGE, and then transferred onto a PVDF membrane. The membrane was analyzed by the murine antibody VB22B in Western blotting.
(§4) Then, GST fusion proteins containing the respective regions of human Mp1: MG3 (Gln26 to Ala189), MG4 (Gln26 to Pro106), MG5 (Gln26 to Glu259), and MG6 (Gln26 to Gly245) were prepared and analyzed by Western blotting using the same procedure described above. […] In addition, GST was fused with MG7 (Gln26 to Ala231) and MG8 (Gln26 to Pro217) to prepare GST fusion proteins.

[7] = biological target: T6, GST fusion protein containing MG3 (Gln26 to Ala189) of human Mp1 (human, UniProt P40238 26-189); test: Western blotting of GST fusion proteins
T6 construct: range 26-189; not shown: glutathione S-transferase (GST) encoded by vector pGEX-4T-3 (Amersham Biosciences)
T6 sequence (looked up): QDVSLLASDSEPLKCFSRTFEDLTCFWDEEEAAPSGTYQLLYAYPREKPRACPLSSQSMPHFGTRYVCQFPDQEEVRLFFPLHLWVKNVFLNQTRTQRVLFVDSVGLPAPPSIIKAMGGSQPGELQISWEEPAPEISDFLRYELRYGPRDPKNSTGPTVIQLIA
Experimental: as §3, §4

[8] = biological target: T7, GST fusion protein containing MG4 (Gln26 to Pro106) of human Mp1 (human, UniProt P40238 26-106); test: Western blotting of GST fusion proteins
T7 construct: range 26-106; not shown: glutathione S-transferase (GST) encoded by vector pGEX-4T-3 (Amersham Biosciences)
T7 sequence (looked up): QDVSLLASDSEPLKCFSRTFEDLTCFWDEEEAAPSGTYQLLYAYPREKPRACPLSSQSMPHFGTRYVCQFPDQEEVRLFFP
Experimental: as §3, §4

| Binder | binding result [1] | binding result [2] | binding result [3] | Kd [4] [nM] | binding result [5] | binding result [6] | binding result [7] | binding result [8] |
| --- | --- | --- | --- | --- | --- | --- | --- | --- |
| B1 | binds | binds | no binding | – | – | – | – | – |
| B2 | – | – | no binding | 1.67 | binds | no binding | no binding | no binding |
